Reference: publication doi:10.1101/2021.07.23.453429

Legend:
cyclophilin D [1] = target: cyclophilin D (UniProt P30405); experiment: NMR titration
cyclophilin D [2] = target: cyclophilin D (UniProt P30405); experiment: SPR

Sequence of cyclophilin D (P30405 43-207): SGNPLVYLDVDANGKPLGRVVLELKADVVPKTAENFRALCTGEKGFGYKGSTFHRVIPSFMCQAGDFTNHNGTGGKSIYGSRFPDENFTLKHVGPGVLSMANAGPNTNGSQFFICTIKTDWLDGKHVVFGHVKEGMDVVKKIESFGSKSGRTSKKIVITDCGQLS

Row | Substance | residue-based KD (CypD residue G65) (cyclophilin D [1]) | residue-based KD (CypD residue I114) (cyclophilin D [1]) | residue-based KD (CypD residue S77) (cyclophilin D [1]) | Kd (cyclophilin D [2])
1 | p53 N-terminal domain (NTD) (domain or fragment) | 4.1 μΜ | 32 μΜ | 6.6 μΜ | 8.4 µM
2 | p53 NTD-DBD (domain or fragment) |  |  |  | 10 µM
